This is an account of results in publication PMC9519043.

Data set [1] deals with HCoV 229E virus particle (Human coronavirus 229E (ATCC VR-740)). Nature of the data set: microfluidic affinity capture, RT-qPCR. The settings on record: 5' amino C12 linker and TEG spacer 9, 3' inverted dT, SPR (BIAcore T200, […], pH not stated.
For data set [2], the system named is HCoV OC43 virus particle (Betacoronavirus 1 HCoV OC43 (ATCC VR-1558)). Nature of the data set: microfluidic affinity capture, RT-qPCR. The note with it: 5' amino C12 linker and TEG spacer 9, 3' inverted dT, SPR (BIAcore T200, […], pH not stated. (In general: Real-time PCR tracks product formation cycle by cycle.)

On to “CAGCACCGACCTTGTGCTTTGGGAGTGCTGGTCCAAGGGCGTTAATGGACA [51-nt SARS-CoV-2 aptamer, chip form]”, for which the binding signal was 0.7 % recovery in data set [1] and 3.5 % recovery in data set [2].
